Experimental data as given in the supplement of paper PMC10266784.

B1: library; numbered along this chain (parent)
chain: MAAAAAAAAEQQSSNGPVKKSMREKAVERRSVNKEHNSNFKAGYIPIDEDRLHKTGLRGRKGNLAICVIILLFILAVINLIITLVIWAVIRIGPNGCDSMEFHESGLLRFKQVSDMGVIHPLYKSTVGGRRNENLVITGNNQPIVFQQGTTKLSVENNKTSITSDIGMQFFDPRTQNILFSTDYETHEFHLPSGVKSLNVQKASTERITSNATSDLNIKVDGRAIVRGNEGVFIMGKTIEFHMGGNMELKAENSIILNGSVMVSTTRLPSSSSGDQLGSGDWVRYKLCMCADGTLFKVQVTSQNMGCQISDNPCGNTH

Variants of: B1
Assay: SGCB cell-surface expression functional score (HA stain, bin4 vs bin1, normalised to synonymous) (log10 ratio); higher = more cell-surface SGCB (functional)
Outline: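 The functional score is a log ratio of variant frequency in the highest versus the lowest intensity bin, expressed as a median over codons and duplicate transductions. Codon-saturation libraries of HA-tagged, YFP-fused human beta-sarcoglycan were transduced by lentivirus at MOI <0.1 into HEK293 cells stably expressing alpha-, gamma- and delta-sarcoglycan, and the cells were stained on ice with Alexa Fluor 647 anti-HA, fixed and sorted into four 5% intensity bins before amplicon sequencing. Synonymous variants were scaled to mean 0, SD 0.5 within each section.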

Variant	SGCB cell-surface expression functional score (log10)
MAAAAAAAAEQQSSNGPVKKSMREKAVERRSVNKEHNSNFKAGYIPIDEDRLHKTGLRGRKGNLAICVIILLFILAVINLIITLVIWAVIRIGPNGCDSMEFHESGLLRFKQVSDMGVIHPLYKSTVGGRRNENLVITGNNQPIVFQQGTAKLSVENNKTSITSDIGMQFFDPRTQNILFSTDYETHEFHLPSGVKSLNVQKASTERITSNATSDLNIKVDGRAIVRGNEGVFIMGKTIEFHMGGNMELKAENSIILNGSVMVSTTRLPSSSSGDQLGSGDWVRYKLCMCADGTLFKVQVTSQNMGCQISDNPCGNTH [T151A]	-0.08
MAAAAAAAAEQQSSNGPVKKSMREKAVERRSVNKEHNSNFKAGYIPIDEDRLHKTGLRGRKGNLAICVIILLFILAVINLIITLVIWAVIRIGPNGCDSMEFHESGLLRFKQVSDMGVIHPLYKSTVGGRRNENLVITGNNQPIVFQQGPTKLSVENNKTSITSDIGMQFFDPRTQNILFSTDYETHEFHLPSGVKSLNVQKASTERITSNATSDLNIKVDGRAIVRGNEGVFIMGKTIEFHMGGNMELKAENSIILNGSVMVSTTRLPSSSSGDQLGSGDWVRYKLCMCADGTLFKVQVTSQNMGCQISDNPCGNTH [T150P]	-0.37
MAAAAAAAAEQQSSNGPVKKSMREKAVERRSVNKEHNSNFKAGYIPIDEDRLHKTGLRGRKGNLAICVIILLFILAVINLIITLVIWAVIRIGPNGCDSMEFHESGLLRFKQVSDMGVIHPLYKSTVGGRRNENLVITGNNQPIVFQQGYTKLSVENNKTSITSDIGMQFFDPRTQNILFSTDYETHEFHLPSGVKSLNVQKASTERITSNATSDLNIKVDGRAIVRGNEGVFIMGKTIEFHMGGNMELKAENSIILNGSVMVSTTRLPSSSSGDQLGSGDWVRYKLCMCADGTLFKVQVTSQNMGCQISDNPCGNTH [T150Y]	0
MAAAAAAAAEQQSSNGPVKKSMREKAVERRSVNKEHNSNFKAGYIPIDEDRLHKTGLRGRKGNLAICVIILLFILAVINLIITLVIWAVIRIGPNGCDSMEFHESGLLRFKQVSDMGVIHPLYKSTVGGRRNENLVITGNNQPIVFQQGHTKLSVENNKTSITSDIGMQFFDPRTQNILFSTDYETHEFHLPSGVKSLNVQKASTERITSNATSDLNIKVDGRAIVRGNEGVFIMGKTIEFHMGGNMELKAENSIILNGSVMVSTTRLPSSSSGDQLGSGDWVRYKLCMCADGTLFKVQVTSQNMGCQISDNPCGNTH [T150H]	0
MAAAAAAAAEQQSSNGPVKKSMREKAVERRSVNKEHNSNFKAGYIPIDEDRLHKTGLRGRKGNLAICVIILLFILAVINLIITLVIWAVIRIGPNGCDSMEFHESGLLRFKQVSDMGVIHPLYKSTVGGRRNENLVITGNNQPIVFQQGWTKLSVENNKTSITSDIGMQFFDPRTQNILFSTDYETHEFHLPSGVKSLNVQKASTERITSNATSDLNIKVDGRAIVRGNEGVFIMGKTIEFHMGGNMELKAENSIILNGSVMVSTTRLPSSSSGDQLGSGDWVRYKLCMCADGTLFKVQVTSQNMGCQISDNPCGNTH [T150W]	1.1
MAAAAAAAAEQQSSNGPVKKSMREKAVERRSVNKEHNSNFKAGYIPIDEDRLHKTGLRGRKGNLAICVIILLFILAVINLIITLVIWAVIRIGPNGCDSMEFHESGLLRFKQVSDMGVIHPLYKSTVGGRRNENLVITGNNQPIVFQQGDTKLSVENNKTSITSDIGMQFFDPRTQNILFSTDYETHEFHLPSGVKSLNVQKASTERITSNATSDLNIKVDGRAIVRGNEGVFIMGKTIEFHMGGNMELKAENSIILNGSVMVSTTRLPSSSSGDQLGSGDWVRYKLCMCADGTLFKVQVTSQNMGCQISDNPCGNTH [T150D]	0.59
MAAAAAAAAEQQSSNGPVKKSMREKAVERRSVNKEHNSNFKAGYIPIDEDRLHKTGLRGRKGNLAICVIILLFILAVINLIITLVIWAVIRIGPNGCDSMEFHESGLLRFKQVSDMGVIHPLYKSTVGGRRNENLVITGNNQPIVFQQGNTKLSVENNKTSITSDIGMQFFDPRTQNILFSTDYETHEFHLPSGVKSLNVQKASTERITSNATSDLNIKVDGRAIVRGNEGVFIMGKTIEFHMGGNMELKAENSIILNGSVMVSTTRLPSSSSGDQLGSGDWVRYKLCMCADGTLFKVQVTSQNMGCQISDNPCGNTH [T150N]	0.07
MAAAAAAAAEQQSSNGPVKKSMREKAVERRSVNKEHNSNFKAGYIPIDEDRLHKTGLRGRKGNLAICVIILLFILAVINLIITLVIWAVIRIGPNGCDSMEFHESGLLRFKQVSDMGVIHPLYKSTVGGRRNENLVITGNNQPIVFQQGETKLSVENNKTSITSDIGMQFFDPRTQNILFSTDYETHEFHLPSGVKSLNVQKASTERITSNATSDLNIKVDGRAIVRGNEGVFIMGKTIEFHMGGNMELKAENSIILNGSVMVSTTRLPSSSSGDQLGSGDWVRYKLCMCADGTLFKVQVTSQNMGCQISDNPCGNTH [T150E]	-0.57
MAAAAAAAAEQQSSNGPVKKSMREKAVERRSVNKEHNSNFKAGYIPIDEDRLHKTGLRGRKGNLAICVIILLFILAVINLIITLVIWAVIRIGPNGCDSMEFHESGLLRFKQVSDMGVIHPLYKSTVGGRRNENLVITGNNQPIVFQQGLTKLSVENNKTSITSDIGMQFFDPRTQNILFSTDYETHEFHLPSGVKSLNVQKASTERITSNATSDLNIKVDGRAIVRGNEGVFIMGKTIEFHMGGNMELKAENSIILNGSVMVSTTRLPSSSSGDQLGSGDWVRYKLCMCADGTLFKVQVTSQNMGCQISDNPCGNTH [T150L]	-0.19
MAAAAAAAAEQQSSNGPVKKSMREKAVERRSVNKEHNSNFKAGYIPIDEDRLHKTGLRGRKGNLAICVIILLFILAVINLIITLVIWAVIRIGPNGCDSMEFHESGLLRFKQVSDMGVIHPLYKSTVGGRRNENLVITGNNQPIVFQQGKTKLSVENNKTSITSDIGMQFFDPRTQNILFSTDYETHEFHLPSGVKSLNVQKASTERITSNATSDLNIKVDGRAIVRGNEGVFIMGKTIEFHMGGNMELKAENSIILNGSVMVSTTRLPSSSSGDQLGSGDWVRYKLCMCADGTLFKVQVTSQNMGCQISDNPCGNTH [T150K]	-0.14
MAAAAAAAAEQQSSNGPVKKSMREKAVERRSVNKEHNSNFKAGYIPIDEDRLHKTGLRGRKGNLAICVIILLFILAVINLIITLVIWAVIRIGPNGCDSMEFHESGLLRFKQVSDMGVIHPLYKSTVGGRRNENLVITGNNQPIVFQQGITKLSVENNKTSITSDIGMQFFDPRTQNILFSTDYETHEFHLPSGVKSLNVQKASTERITSNATSDLNIKVDGRAIVRGNEGVFIMGKTIEFHMGGNMELKAENSIILNGSVMVSTTRLPSSSSGDQLGSGDWVRYKLCMCADGTLFKVQVTSQNMGCQISDNPCGNTH [T150I]	0.04
MAAAAAAAAEQQSSNGPVKKSMREKAVERRSVNKEHNSNFKAGYIPIDEDRLHKTGLRGRKGNLAICVIILLFILAVINLIITLVIWAVIRIGPNGCDSMEFHESGLLRFKQVSDMGVIHPLYKSTVGGRRNENLVITGNNQPIVFQQGRTKLSVENNKTSITSDIGMQFFDPRTQNILFSTDYETHEFHLPSGVKSLNVQKASTERITSNATSDLNIKVDGRAIVRGNEGVFIMGKTIEFHMGGNMELKAENSIILNGSVMVSTTRLPSSSSGDQLGSGDWVRYKLCMCADGTLFKVQVTSQNMGCQISDNPCGNTH [T150R]	-0.26
MAAAAAAAAEQQSSNGPVKKSMREKAVERRSVNKEHNSNFKAGYIPIDEDRLHKTGLRGRKGNLAICVIILLFILAVINLIITLVIWAVIRIGPNGCDSMEFHESGLLRFKQVSDMGVIHPLYKSTVGGRRNENLVITGNNQPIVFQQGSTKLSVENNKTSITSDIGMQFFDPRTQNILFSTDYETHEFHLPSGVKSLNVQKASTERITSNATSDLNIKVDGRAIVRGNEGVFIMGKTIEFHMGGNMELKAENSIILNGSVMVSTTRLPSSSSGDQLGSGDWVRYKLCMCADGTLFKVQVTSQNMGCQISDNPCGNTH [T150S]	-0.15
MAAAAAAAAEQQSSNGPVKKSMREKAVERRSVNKEHNSNFKAGYIPIDEDRLHKTGLRGRKGNLAICVIILLFILAVINLIITLVIWAVIRIGPNGCDSMEFHESGLLRFKQVSDMGVIHPLYKSTVGGRRNENLVITGNNQPIVFQQGCTKLSVENNKTSITSDIGMQFFDPRTQNILFSTDYETHEFHLPSGVKSLNVQKASTERITSNATSDLNIKVDGRAIVRGNEGVFIMGKTIEFHMGGNMELKAENSIILNGSVMVSTTRLPSSSSGDQLGSGDWVRYKLCMCADGTLFKVQVTSQNMGCQISDNPCGNTH [T150C]	0.25
MAAAAAAAAEQQSSNGPVKKSMREKAVERRSVNKEHNSNFKAGYIPIDEDRLHKTGLRGRKGNLAICVIILLFILAVINLIITLVIWAVIRIGPNGCDSMEFHESGLLRFKQVSDMGVIHPLYKSTVGGRRNENLVITGNNQPIVFQQGVTKLSVENNKTSITSDIGMQFFDPRTQNILFSTDYETHEFHLPSGVKSLNVQKASTERITSNATSDLNIKVDGRAIVRGNEGVFIMGKTIEFHMGGNMELKAENSIILNGSVMVSTTRLPSSSSGDQLGSGDWVRYKLCMCADGTLFKVQVTSQNMGCQISDNPCGNTH [T150V]	-0.25
MAAAAAAAAEQQSSNGPVKKSMREKAVERRSVNKEHNSNFKAGYIPIDEDRLHKTGLRGRKGNLAICVIILLFILAVINLIITLVIWAVIRIGPNGCDSMEFHESGLLRFKQVSDMGVIHPLYKSTVGGRRNENLVITGNNQPIVFQQGQTKLSVENNKTSITSDIGMQFFDPRTQNILFSTDYETHEFHLPSGVKSLNVQKASTERITSNATSDLNIKVDGRAIVRGNEGVFIMGKTIEFHMGGNMELKAENSIILNGSVMVSTTRLPSSSSGDQLGSGDWVRYKLCMCADGTLFKVQVTSQNMGCQISDNPCGNTH [T150Q]	-0.12
MAAAAAAAAEQQSSNGPVKKSMREKAVERRSVNKEHNSNFKAGYIPIDEDRLHKTGLRGRKGNLAICVIILLFILAVINLIITLVIWAVIRIGPNGCDSMEFHESGLLRFKQVSDMGVIHPLYKSTVGGRRNENLVITGNNQPIVFQQGMTKLSVENNKTSITSDIGMQFFDPRTQNILFSTDYETHEFHLPSGVKSLNVQKASTERITSNATSDLNIKVDGRAIVRGNEGVFIMGKTIEFHMGGNMELKAENSIILNGSVMVSTTRLPSSSSGDQLGSGDWVRYKLCMCADGTLFKVQVTSQNMGCQISDNPCGNTH [T150M]	-0.99
MAAAAAAAAEQQSSNGPVKKSMREKAVERRSVNKEHNSNFKAGYIPIDEDRLHKTGLRGRKGNLAICVIILLFILAVINLIITLVIWAVIRIGPNGCDSMEFHESGLLRFKQVSDMGVIHPLYKSTVGGRRNENLVITGNNQPIVFQQGGTKLSVENNKTSITSDIGMQFFDPRTQNILFSTDYETHEFHLPSGVKSLNVQKASTERITSNATSDLNIKVDGRAIVRGNEGVFIMGKTIEFHMGGNMELKAENSIILNGSVMVSTTRLPSSSSGDQLGSGDWVRYKLCMCADGTLFKVQVTSQNMGCQISDNPCGNTH [T150G]	-0.22
MAAAAAAAAEQQSSNGPVKKSMREKAVERRSVNKEHNSNFKAGYIPIDEDRLHKTGLRGRKGNLAICVIILLFILAVINLIITLVIWAVIRIGPNGCDSMEFHESGLLRFKQVSDMGVIHPLYKSTVGGRRNENLVITGNNQPIVFQQGFTKLSVENNKTSITSDIGMQFFDPRTQNILFSTDYETHEFHLPSGVKSLNVQKASTERITSNATSDLNIKVDGRAIVRGNEGVFIMGKTIEFHMGGNMELKAENSIILNGSVMVSTTRLPSSSSGDQLGSGDWVRYKLCMCADGTLFKVQVTSQNMGCQISDNPCGNTH [T150F]	-0.59
